Results as given in US20200030425 (published 2020).
Several values for one entry are separate records, joined by “and”; a condition that tells them apart may be missing. Identical values can stand only once.

Biological target: T1, human ICOS-Fc (human)
T1 chain: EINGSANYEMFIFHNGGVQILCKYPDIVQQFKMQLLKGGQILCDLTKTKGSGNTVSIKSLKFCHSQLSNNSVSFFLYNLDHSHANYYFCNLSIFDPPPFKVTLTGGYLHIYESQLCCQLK
Experiment: SPR 37C

Kd: 52 nM and 65 nM
B1: ICOS.33 IgG1f S267E Fab (antibody, V domains shown)
VH: EVQLVESGGGLVKPGGSLRLSCAASGFTFSDYFMHWVRQAPGKGLEWVGVIDTKSFNYATYYSDLVKGRFTISRDDSKNTLYLQMNSLKTEDTAVYYCTATIAVPYYFDYWGQGTLVTVSS
VL: DIQMTQSPSSLSASVGDRVTITCQASQDISNYLSWYQQKPGKAPKLLIYYTNLLAEGVPSRFSGSGSGTDFTFTISSLQPEDIATYYCQQYYNYRTFGPGTKVDIK
